Consider 38 sequences from the supplement of paper PMC9732359.

± gives the uncertainty stated by the source.

This data set can be described thus: protein stability index of a GFP-peptide fusion (yeast GPS) (PSI 1-4); higher = more stable; sorted into four equal gates, so the index is relative within each strain. In outline:
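The protein stability index of a peptide was calculated by multiplying its read frequency in each gate by that gate's number and adding the products. The peptides were tiled 17-residue stretches of yeast proteins, fused downstream of GFP on a Cherry-expressing plasmid and carried in yeast as a pooled library. Mid-log cultures in leucine-free medium were sorted into four equal gates by GFP/Cherry ratio, and each gate's plasmids were PCR-amplified and Illumina-sequenced.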

Regarding DVKKRTYEAIDVPGREL [RPB2], the protein stability index was determined as 1.99 ± 0.15 (doa10∆), 3.35 ± 0.16 (pdr5∆), 2.62 ± 0.23 (san1∆) and 3.57 ± 0.17 (ubr1∆).
Turning to DVKVIMATNKIETLDPA [RPT2], the protein stability index by setting is: (doa10∆) 3.17 ± 0.091; (pdr5∆) 2.96 ± 0.093; (san1∆) 2.92 ± 0.07; (ubr1∆) 2.9 ± 0.068.
Turning to DVLHPNRANVSKDELRE [RPS24A], the protein stability index is, setting by setting: (doa10∆) 3.35 ± 0.086; (pdr5∆) 3.29 ± 0.11; (san1∆) 3.19 ± 0.092; (ubr1∆) 3.1 ± 0.086.
On to DVLTLENIQEGTSLTIQ [CDC53], for which the protein stability index is, setting by setting: (doa10∆) 3.17 ± 0.1; (pdr5∆) 3.22 ± 0.14; (san1∆) 3.1 ± 0.056; (ubr1∆) 3.14 ± 0.054.
Taken in the same sequence, the figures for DVNLDVRIHSIQVLTEA [IRR1] were 2.19 ± 0.15, 2.84 ± 0.2, 2.78 ± 0.18 and 2.84 ± 0.13.
Taken in the same sequence, the figures for DVPSEDDPTQLVSRGGC [RPO21] were 3.61 ± 0.28, 3.06 ± 0.15, 2.97 ± 0.21 and 3.01 ± 0.15.
Taken in the same sequence, the figures for DVSLLLQRDLFIRLPHW [RGR1] were 2.5 ± 0.087, 2.51 ± 0.063, 2.2 ± 0.073 and 2.55 ± 0.083.
On to DVSQLIAGINKKKGLDE [PRP28], for which the protein stability index was 3.43 ± 0.095 (doa10∆), 3.64 ± 0.11 (pdr5∆), 3.29 ± 0.086 (san1∆) and 3.76 ± 0.11 (ubr1∆).
Regarding DVSRVAAVETLYQDMAA [RPL20A], the protein stability index was 2.66 ± 0.066 (doa10∆), 2.67 ± 0.08 (pdr5∆), 2.37 ± 0.089 (san1∆) and 2.09 ± 0.071 (ubr1∆).
In the case of DVTAIQTWSYLSLYSTD [ECM29], the protein stability index is 1.52 ± 0.038 (doa10∆), 1.91 ± 0.036 (pdr5∆), 1.9 ± 0.055 (san1∆) and 1.92 ± 0.036 (ubr1∆).
Taken in the same sequence, the figures for DWESDLHIHLNQILQTE [YDL116W/NUP84] were 2.69 ± 0.1, 3.07 ± 0.087, 2.77 ± 0.092 and 2.81 ± 0.15.
In the case of DWNKRFSHLAGGKIINK [BRR2], the protein stability index is, setting by setting: (doa10∆) 2.84 ± 0.075; (pdr5∆) 3.33 ± 0.14; (san1∆) 3.12 ± 0.2; (ubr1∆) 3 ± 0.089.
DYIEFNITFSEELVSLA [YJL039C/NUP192] showed a protein stability index (san1∆) of 1.54 ± 0.27 and a protein stability index (ubr1∆) of 1.61 ± 0.28.
As to DYLNAELGEFFVNGVAT [FAS2], the protein stability index (doa10∆) worked out at 3.09 ± 0.093, the protein stability index (pdr5∆) stood at 2.79 ± 0.24, the protein stability index (san1∆) was found to be 3.06 ± 0.12 and the protein stability index (ubr1∆) worked out at 3.35 ± 0.08.
Taken in the same sequence, the figures for EAAFRNIKTIAETLAEE [RPS5] were 2.79 ± 0.084, 3.28 ± 0.076, 3.25 ± 0.053 and 2.84 ± 0.046.
Regarding EAEVTAEVNGGDDEATE [BRR2], the protein stability index is, setting by setting: (pdr5∆) 3.24 ± 0.12; (ubr1∆) 2.72 ± 0.21.
In the case of EAFNDGNENFEDFDVEH [RPO26], the protein stability index runs as follows: (doa10∆) 2.97 ± 0.079; (pdr5∆) 3.15 ± 0.086; (san1∆) 2.92 ± 0.085; (ubr1∆) 3.21 ± 0.079.
Taken in the same sequence, the figures for EAHPTKVKNFGVWVRYD [RPL20A] were 3.02 ± 0.087, 2.96 ± 0.056, 3.01 ± 0.044 and 2.9 ± 0.047.
On the same counts, the results for EAKSFQDEAELVEEKTP [RPC82] are 3.53 ± 0.12, 3.46 ± 0.14, 3.51 ± 0.14 and 3.5 ± 0.1.
On to EALVQAFAFCIPVYCFS [YCG1], for which the protein stability index (doa10∆) came out at 1.68 ± 0.071, the protein stability index (pdr5∆) turned out to be 1.83 ± 0.056, the protein stability index (san1∆) was determined as 1.73 ± 0.16 and the protein stability index (ubr1∆) amounted to 1.51 ± 0.064.
Turning to EANWPLPVNIRRIIQNA [RPO21], the protein stability index was determined as 1.77 ± 0.088 (doa10∆), 1.37 ± 0.089 (pdr5∆) and 1.04 ± 0.064 (ubr1∆).
In the case of EARLFNIWGTVRTNRFD [ECM29], the protein stability index was 2.61 ± 0.19 (doa10∆), 2.14 ± 0.15 (pdr5∆) and 2.32 ± 0.28 (ubr1∆).
For the sequence EAVKQAAKIIYLAHEDN [PRE10], the protein stability index (doa10∆) is 2.75 ± 0.19, the protein stability index (pdr5∆) was 3.02 ± 0.12, the protein stability index (san1∆) turned out to be 3.3 ± 0.22 and the protein stability index (ubr1∆) is 2.55 ± 0.14.
On to EAVVDQDVQRTCILHGP [FAS1], for which the protein stability index runs as follows: (doa10∆) 3.32 ± 0.11; (pdr5∆) 3.24 ± 0.087; (san1∆) 3.17 ± 0.078; (ubr1∆) 3.38 ± 0.051.
On the same counts, the results for ECFISMQSTSPAVKQWD [SWI1] are 2.34 ± 0.083, 2.38 ± 0.058, 2.4 ± 0.086 and 2.65 ± 0.06.
On the same counts, the results for ECQVIAAEGLCKLFLAD [YCG1] are 3.29 ± 0.066, 3.29 ± 0.067, 3.11 ± 0.047 and 3.25 ± 0.036.
Taken in the same sequence, the figures for EDEEKILDNTENYDDTE [DSN1] were 3.37 ± 0.088, 3.33 ± 0.078, 3.4 ± 0.058 and 3.44 ± 0.072.
Regarding EDEMMHEEDQKTNIIEK [RPN12], the protein stability index (doa10∆) stood at 3.26 ± 0.1, the protein stability index (pdr5∆) turned out to be 3.09 ± 0.12, the protein stability index (san1∆) amounted to 2.58 ± 0.15 and the protein stability index (ubr1∆) was found to be 2.85 ± 0.13.
Taken in the same sequence, the figures for EDETLRRIKEAEENLKK [YIL149C/MLP2] were 3.54 ± 0.23, 3.54 ± 0.15, 3.26 ± 0.076 and 3.69 ± 0.13.
As for EDFEHNNLSSMNLDFDI [MCD1], the protein stability index reads like this: (doa10∆) 2.76 ± 0.053; (pdr5∆) 3.24 ± 0.061; (san1∆) 3.24 ± 0.04; (ubr1∆) 3.24 ± 0.033.
Taken in the same sequence, the figures for EDGTSASFQIVEEDHTL [RPC19] were 3.02 ± 0.16, 3.69 ± 0.17, 3.4 ± 0.12 and 3.25 ± 0.13.
As for EDHDVHSNESSNETIGE [IRR1], the protein stability index (doa10∆) came to 3 ± 0.079, the protein stability index (pdr5∆) came to 3.2 ± 0.086, the protein stability index (san1∆) was 3.28 ± 0.058 and the protein stability index (ubr1∆) amounted to 3.06 ± 0.075.
Taken in the same sequence, the figures for EDIIKRTSPIDNVSNTH [NUT2] were 2.87 ± 0.062, 2.88 ± 0.06, 3.01 ± 0.083 and 3.04 ± 0.049.
In the case of EDITEPKPDKPSGRTRG [ESC2], the protein stability index is, setting by setting: (doa10∆) 3.07 ± 0.15; (pdr5∆) 2.96 ± 0.14; (san1∆) 3.07 ± 0.11; (ubr1∆) 3.26 ± 0.1.
EDMETQASDPSKKKKNI [RPC53] returned a protein stability index (doa10∆) of 3.27 ± 0.14, a protein stability index (pdr5∆) of 3.44 ± 0.19, a protein stability index (san1∆) of 3.24 ± 0.16 and a protein stability index (ubr1∆) of 3.33 ± 0.15.
As to EDPNSAAFDEVEYKLTF [DIS3], the protein stability index turned out to be 1.18 ± 0.12 (doa10∆), 1.6 ± 0.29 (pdr5∆) and 1.17 ± 0.25 (san1∆).
With EDPVTVEYLTRYVAGVQ [PRE6], the protein stability index by setting is: (doa10∆) 2.39 ± 0.058; (pdr5∆) 2.39 ± 0.07; (san1∆) 2.54 ± 0.051; (ubr1∆) 2.54 ± 0.067.
With EDRNKIHQYLFQEGVVV [RPS10A], the protein stability index is, setting by setting: (doa10∆) 2.37 ± 0.064; (pdr5∆) 2.37 ± 0.06; (san1∆) 1.66 ± 0.12; (ubr1∆) 2.61 ± 0.058.
